Read-outs that look alike come from different tables or passages of the source.
Key:
Assay in all cases: ELISA on immobilised human gamma globulin, anti-6-His detection; antibody-binding activity after 0.5 M NaOH, 25 C, 15 h divided by activity without alkali treatment
[1] = target: gamma globulin (manufactured by The Chemo-Sero-Therapeutic Research Institute), a human antibody (human)
[2] = target: gamma globulin (manufactured by The Chemo-Sero-Therapeutic Research Institute), a human antibody (human); remark: listed apart in the source
[3] = target: gamma globulin (manufactured by The Chemo-Sero-Therapeutic Research Institute), a human antibody (human); remark: listed apart in the source
[4] = target: gamma globulin (manufactured by The Chemo-Sero-Therapeutic Research Institute), a human antibody (human); remark: listed apart in the source

Substance | Remaining activity [%] [1] | Remaining activity [%] [2] | Remaining activity [%] [3] | Remaining activity [%] [4]
SpA5d (SpA4a with Asn11Lys) (designed binder) | 89% | 88% | 86% | 
SpA5e (SpA4a with Asn11Tyr) (designed binder) | 85% |  |  | 
SpA5f (SpA5d with Lys(Glu)58Gly) (designed binder) |  | 90% |  | 
SpA6a (SpA5d with Glu15Ala) (designed binder) | 86% | 91% |  | 83%
SpA6b (SpA6a with Lys(Glu)58Asp) (designed binder) | 87% |  |  | 
SpA6c (SpA6a with Lys(Glu)58Val) (designed binder) | 87% |  |  | 
SpA7a (SpA6a with Val40Ala) (designed binder) | 89% |  |  | 
SpA7b (SpA6a with Asn3Ile) (designed binder) |  |  |  | 88%

— patent publication US20210277053A1
